Source: patent US20190041401A1, “Methods of Treating Subjects having Severe and/or Persistent Asthma” (National Jewish Health, priority 2015, published 2019)

Tests used:
[1] = system: MEK^low population; assay: Sensitivity of MEK^low CD4 population to dexamethasone-induced cell death; assay type: cell-based, human; details: BAL CD4 T cells, MEK^low (MFI 10)
Description: FIGS. 5A-5H show the preferential expression of dual-positive TH2/TH17 cells in the BAL MEK^high CD4 T-cell population. FIGS. 5A and 5B, show the sensitivity of MEK^high and MEK^low CD4 populations to dexamethasone-induced cell death. Data are presented as percentages and absolute cell counts (in parentheses) per boxed area. […] FIGS. 5E and 5F show expression of dual-positive TH2/TH17 cells in MEK^high and MEK^low BAL CD4 T-cell populations. FIGS. 5G and 5H show the comparison of expression of dual-positive IL-4/IL-17 (FIG. 5G) and pSTAT3/pSTAT6 (FIG. 5H) cells in MEK^high and MEK^low cell populations.
Patients were allowed to continue their routine medication. Bronchoscopy and BAL were performed, as described previously (Good J T Jr, et al. Refractory asthma: importance of bronchoscopy to identify phenotypes and direct therapy. Chest 2012; 141:599-606). BAL fluid was processed immediately. Cells were isolated by means of centrifugation. Supernatant fluid was placed into aliquots in small samples and frozen. Cells were either cultured or fixed immediately in 4% paraformaldehyde and processed for flow cytometry. […]
Cells were stained with the following antibodies. […] This was detected with an Alexa Fluor 488-labeled anti-rabbit secondary antibody. […] Flow cytometric data were analyzed with FlowJo software (Tree Star, Ashland, Ore). […]

[2] = system: human lung epithelial cell line A549; assay: IL-33 mRNA induction in A549 cells (real-time PCR); assay type: cell-based; details: cytokine treatment for 72 hours, normalized to GAPDH
Protocol: (§1) FIGS. 18A-18J show the role of IL-33 in the persistence of asthma. FIG. 18A, A549 cells were cultured in medium alone or with IL-33 ([…]), IL-1b (2 ng/mL), IL-4 (10 ng/mL), IL-13 (20 ng/mL), IL-17 (10 ng/mL), TNF (2 ng/mL), IFN-γ (10 ng/mL), or IFN-γ plus TNF (same concentrations) for 72 hours, and then mRNA was analyzed for IL-33 normalized to glyceraldehyde-3-phosphate dehydrogenase (GAPDH). *P<0.05 and **P<0.01. There were 4 to 8 mice per group. FIGS. 18B-18E show the direct effect of IL-33 on airway hyperreactivity, lung ILCs, and autoinduction. […] IN, Intranasal. […] The change in RL with the 25-mg dose of methacholine is shown (n=5 per group). *P<0.05.
Immediately after flexiVent analysis, lung sections were collected in RIPA buffer (50 mmol/L Tris [pH 7.4], 150 mmol/L NaCl, 1 mmol/L EDTA, 1 mmol/L NaF, 1 mmol/L Na3VO4, and 0.1 mmol/L phenylmethylsulfonyl fluoride) containing protease and phosphatase inhibitors and homogenized. Lysed samples were subjected to 10% SDS-PAGE, transferred to a polyvinylidene difluoride membrane, and then immunoblotted with primary antibodies (IL-33 [R&D Systems], tubulin [H-235], and b-actin [Santa Cruz Biotechnology, Dallas, Tex]). After washing, the membranes were incubated with a horseradish peroxidase-conjugated secondary antibody. After additional washing, the membranes were developed with ECL reagent, as previously described (Gorska et al. 2007). A549 cell culture A549 cells were cultured in RPMI in 10% FBS (HyClone; Thermo Scientific, Waltham, Mass.) and 1% penicillin/streptomycin (Gibco, Carlsbad, Calif.) and maintained at 378C in a humidified 5% CO2 incubator. All cytokines were purchased from PeproTech (Rocky Hill, N.J.). In one experiment cells were treated with medium, IL-1b (2 ng/mL), IL-4 (10 ng/mL), IL-13 (20 ng/mL), IL-17 (10 ng/mL), IL-33 (20 ng/mL), TNF (2 ng/mL), IFN-g (10 ng/mL), and TNF (2 ng/mL) plus IFN-g (10 ng/mL) for 72 hours. Cellular RNA was analyzed for mRNA for IL-33 and IL-33R. In a second experiment cells were pretreated for 24 hours with medium, IL-1b (2 ng/mL), IL-4 (10 ng/mL), IL-13 (20 ng/mL), IL-17 (10 ng/mL), TNF (2 ng/mL), or IFN-g (10 ng/mL) before stimulation for 72 hours with IL-33 (20 ng/mL). Cellular RNAwas analyzed for mRNA for IL-33. In a third experiment cells were treated for 24 hours with DRA (5 μg/mL dust mite, 15 μg/mL ragweed, and 5 μg/mL Aspergillus species). Cellular RNA was analyzed for mRNA for IL-33. In a fourth experiment cells were treated for 24 hours with IL-13 (20 ng/mL) and ATP, and the supernatant was collected and analyzed for IL-33 levels by means of ELISA, according to the manufacturer's instructions (R&D systems). […]

[3] = system: A549 cells; assay: IL-33 autoinduction in A549 cells after cytokine pretreatment; assay type: cell-based, human; details: pretreated 24 hours with cytokine, then 72 hours with IL-33 (20 ng/mL)
Protocol: as §1
(§2) Immediately after flexiVent analysis, lung sections were collected in RIPA buffer (50 mmol/L Tris [pH 7.4], 150 mmol/L NaCl, 1 mmol/L EDTA, 1 mmol/L NaF, 1 mmol/L Na3VO4, and 0.1 mmol/L phenylmethylsulfonyl fluoride) containing protease and phosphatase inhibitors and homogenized. […] Cellular RNA was analyzed for mRNA for IL-33 and IL-33R. […] Cellular RNAwas analyzed for mRNA for IL-33. […] Cellular RNA was analyzed for mRNA for IL-33. In a fourth experiment cells were treated for 24 hours with IL-13 (20 ng/mL) and ATP, and the supernatant was collected and analyzed for IL-33 levels by means of ELISA, according to the manufacturer's instructions (R&D systems). […]

[4] = system: A549 cells; assay: Cytokine induction of IL-33R mRNA in A549 cells; assay type: cell-based, human; details: cytokine treatment for 72 hours
Protocol: as §1, §2

[5] = system: C57Bl/6 mice; assay: Intranasal IL-33 administration, outcomes after 15 days; assay type: in vivo, mouse
Protocol: as §1
FIG. 27A, Effect of IL-13 on IL-33 secretion. A549 cells were treated overnight with medium or IL-13 (20 ng/mL) and ATP ([…]), and the released IL-33 was measured by using ELISA (n=6). *P=0.04. FIGS. 27B-27E, Direct effect of IL-33 on airway hyperreactivity and lung ILCs. C57Bl/6 mice were treated intranasally for 3 consecutive days with 400 ng per dose of IL-33. Outcome measures were evaluated 15 days after final exposure.
Measurement methodologies have been explained in depth in Goplen et al. (Goplen N, et al. Combined sensitization of mice to extracts of dust mite, ragweed, and Aspergillus species breaks through tolerance and establishes chronic features of asthma. J Allergy Clin Immunol 2009; 123:925-32.e11). Briefly, mice were anesthetized with ketamine (180 mg/kg), xylazine (9 mg/kg), and acepromazine (4 mg/kg). After loss of footpad pinch reflex, a tracheotomy was performed, and the mouse was attached with an 18-gauge cannula to a small-animal ventilator with a computer-controlled piston (FlexiVent; SCIREQ, Montreal, Quebec, Canada). Mice were ventilated at a frequency of 90 breaths/min with a tidal volume of 20 mL/kg during nebulization and otherwise with a frequency of 150 breaths/min with a tidal volume of 20 mL/kg while breathing against an artificial positive endexpiratory pressure of 2.5 to 3 cm H2O. Lungs were inflated to total lung capacity twice to standardize volume history. Resistance measurements were then taken to establish baselines for total lung resistance and at each methacholine dose. Group averages were expressed as fold increases in baseline resistance (means+SEMs).
Inflammation was quantified by using Metamorph image acquisition and analysis software on H&E-stained lung sections at 20× magnification, as described in Goplen et al. 2009. Airway epithelial hypertrophy and peribronchial smoothmuscle hypertrophyweremeasured as the area of epithelial or smoothmuscle per circumference of airway basement membrane. Airway inflammation was measured as the area of inflammatory infiltrates as a percentage of the total field. A minimum of 5 airways per mouse and 5 to 9 mice per group were quantified. Images were acquired on a Nikon Eclipse TE2000-U microscope by using 320 dry lenses at room temperature through a Diagnostics Instruments camera model #4.2 with Spot software 5.0 (Diagnostic Instruments, Inc, Sterling Heights, Mich.). H&E sections were mounted with Permount medium (Thermo Fisher Scientific, Inc, Waltham, Mass.). Images were adjusted for brightness and contrast to improve viewing.
Lungs were perfused with saline, and single-cell suspensions of lung cells were acquired by using mechanical mincing of lungs followed by digestion at 37° C. for 45 minutes in RPMI with 10% FBS, 1% penicillin/streptomycin, and collagenaseA (1 mg/mL). Cell suspensions were agitated at room temperature for 10 minutes in RPMI with 100 U/mL DNAse I before filtration through 40-mm filters and red blood cell lysis. Single-cell suspensions were subsequently fixed in 4% paraformaldehyde for flow cytometric analysis.
Mouse ILC2s. For mouse flow cytometric staining, all conjugate antibodies were purchased from BioLegend (San Diego, Calif.), unless otherwise stated. Mouse lung digest cells were fixed with 4% paraformaldehyde and incubated with 10% donkey serum and 1% 2.4G2. […]

[6] = intranasal, 400 ng per dose for 3 days, 15 days after
[7] = intranasal, 3 consecutive days, 400 ng per dose, 15 days after

Q: `C[C@@H]1C[C@H]2[C@@H]3CCC4=CC(=O)C=C[C@]4(C)[C@@]3(F)[C@@H](O)C[C@]2(C)[C@@]1(O)C(=O)CO` [Dexamethasone, dexamethasone] was tested. Which “cell count decrease after dexamethasone treatment, MEK^low CD4 T cells” value [1] did it give?
A: 2.7 fold

Q: How did the “induction of IL-33 mRNA” value [2] turn out when “IL-17: cytokine purchased from PeproTech, 10 ng/mL on A549 cells” was run?
A: directly induced IL-33

Q: What does the source list for “IL-113: probably IL-1b cytokine (PeproTech, 2 ng/mL on A549 cells), misprinted”?
A: IL-33 autoinduction after preincubation with cytokine [3]: unable to facilitate IL-33 autoinduction; induction of IL-33R mRNA [4]: strong inducer of IL-33R

B1: IL-4: cytokine purchased from PeproTech, 10 ng/mL on A549 cells (protein, UniProt P05112 25-153, looked up)
Interleukin-4: HKCDITLQEIIKTLNSLTEQKTLCTELTVTDIFAASKNTTEKETFCRAATVLRQFYSHHEKDTRCLGATAQQFHRHKQLIRFLKRLDRNLWGLAGLNSCPVKEANQSTLENFLERLKTIMREKYSKCSS
Q: For B1, which “induction of IL-33 mRNA” value [2] is on record?
A: directly induced IL-33

B2: IL-33: interleukin-33 cytokine, given intranasally to mice or added to A549 cells (protein, UniProt Q8BVZ5 1-266, looked up)
Interleukin-33: MRPRMKYSNSKISPAKFSSTAGEALVPPCKIRRSQQKTKEFCHVYCMRLRSGLTIRKETSYFRKEPTKRYSLKSGTKHEENFSAYPRDSRKRSLLGSIQAFAASVDTLSIQGTSLLTQSPASLSTYNDQSVSFVLENGCYVINVDDSGKDQEQDQVLLRYYESPCPASQSGDGVDGKKLMVNMSPIKDTDIWLHANDKDYSVELQRGDVSPPEQAFFVLHKKSSDFVSFECKNLPGTYIGVKDNQLALVEEKDESCNNIMFKLSKI
Q: Which “persistence of airway hyperreactivity and airway inflammation” value ([5]; after intranasal IL-33, 400 ng per dose for 3 days) does the source give for B2 here?
A: 2 weeks

Q: And the “IL-51 ILC2 numbers” value [5, 6]?
A: increased

Q: And the “number of lung IL-131 ILC2s” value [5, 6]?
A: increased

Q: What about the “total number of IL-51 and IL-131 lung cells” value [5, 6] of the same molecule?
A: increased

Q: What about the airway hyperreactivity [5, 7] of the same molecule?
A: induced airway hyperreactivity

Q: And the airway inflammation [5, 7]?
A: mild airway inflammation

Q: What about the “IL-33 production (autoinduction) in lung cells” value ([5]; pro-surfactant protein C-positive epithelial cells and CD11b+ hematopoietic cells, 2 weeks after intranasal IL-33) of the same molecule?
A: persistent IL-33 production was observed

Q: And the “induction of IL-33 mRNA” value [2]?
A: capable of autoinduction
